Experimental data published in PMC6233201 (Scientific Reports, 2018).

Molecular target: the molecule itself
Test: SEC; gel filtration (Superdex 200 10/300 GL) of the Ni-NTA purified DEDs; self-association read from the elution position (monomer, dimer, oligomer peaks)

B1: wild-type death effector domains (DEDs) of human caspase-8 (residues 1-188) with a C-terminal His6 tag (domain or fragment, UniProt Q14790-1 1-188, looked up)
chain: MDFSRNLYDIGEQLDSEDLASLKFLSLDYIPQRKQEPIKDALMLFQRLQEKRMLEESNLSFLKELLFRINRLDLLITYLNTRKEEMERELQTPGRAQISAYRVMLYQISEEVSRSELRSFKFLLQEEISKCKLDDDMNLLDIFIEMEKRVILGEGKLDILKRVCAQINKSLLKIINDYEEFSKERSSS
notes: tandem death effector domains (DED) of human caspase-8, residues 1-188, UniProt Q14790-1; The soluble protein was mixed with E. coli slyD after purification; also called DED^WT; wild-type DEDs; source: E. coli Rosetta (DE3) pLysS, pET-21b, purified (Ni-NTA, gel filtration); very low yields of soluble protein; not shown: His6, C-terminal, kept
- binding result: binds
